Data from the supplement of paper PMC10724198.
± gives the standard deviation of the averaged measurements.

Test system: Saccharomyces cerevisiae
Experiment: protein stability index of tFT-peptide fusion (C-terminal peptide) (PSI (0-1 scale)); higher = more stable (slower turnover)
Conditions: genetic background: wild type; temperature: 30 C
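Further: PSI is a weighted mean of sequencing reads over stability bins, variants kept only with over 10 reads, mCherry proximal and sfGFP distal, peptide attached via GGGS linker.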

| Sequence | protein stability index |
| --- | --- |
| VAVWGAIRHASN | 0.718 ± 0.033 |
| VCARAGRALEDS | 0.674 ± 0.08 |
| VCAVRVGGGGEG | 0.601 ± 0.04 |
| VCFLFGLVGFGS | 0.597 ± 0.0085 |
| VCGGRLVGWGGW | 0.729 ± 0.1 |
| VCGSGGGCWGGG | 0.622 ± 0.0096 |
| VCICDRLASRDV | 0.733 ± 0.067 |
| VCNFQIGGDRGV | 0.71 ± 0.052 |
| VCRCWGGKGQDS | 0.71 ± 0.012 |
| VCRGRGGEGIGW | 0.721 ± 0.096 |
| VCRVGGVMAGDT | 0.669 ± 0.049 |
| VCSLTFFGLCRP | 0.69 ± 0.025 |
| VCSYISGRKSVL | 0.568 ± 0.0048 |
| VCVCSVPNLGLW | 0.675 ± 0.029 |
| VCVSCTPALLFL | 0.608 ± 0.056 |
| VDGRIYIGIISR | 0.677 ± 0.032 |
| VDSPFPTPLPLI | 0.685 ± 0.087 |
| VDWVEAYVCVGV | 0.538 ± 0.024 |
| VEASRSCTKLDG | 0.675 ± 0.02 |
| VEDRTTNVLNIT | 0.682 ± 0.027 |
| VEGFVPEDGKEE | 0.684 ± 0.024 |
| VELEPPVCVFLL | 0.6391 ± 0.0017 |
| VEQSYKESVNLD | 0.682 ± 0.017 |
| VESDREPIFGCA | 0.65467 ± 0.00014 |
| VEVRVRCVGGRV | 0.703 ± 0.068 |

| Sequence | protein stability index |
| --- | --- |
| VFACDTRHWSFD | 0.796 ± 0.019 |
| VFARKARGFDDV | 0.7188 ± 0.0065 |
| VFAVGRPGRGVV | 0.648 ± 0.014 |
| VFGPRSIARGAI | 0.727 ± 0.12 |
| VFHLFSAVSLRL | 0.592 ± 0.0084 |
| VFITSLWTPLLL | 0.617 ± 0.019 |
| VFLRGSVLGLCI | 0.606 ± 0.034 |
| VFLRSGCSGGGE | 0.799 ± 0.063 |
| VFLTASVLVAPF | 0.575 ± 0.015 |
| VFPPTPPTVPRG | 0.727 ± 0.0077 |
| VFPWRDSNLYAS | 0.713 ± 0.021 |
| VFRPFVLPLMFP | 0.611 ± 0.053 |
| VFSARVVGGVLF | 0.681 ± 0.011 |
| VFSTFGSCHICC | 0.636 ± 0.033 |
| VFVCFMSHLRGS | 0.58 ± 0.012 |
| VFVPCIFRQIAG | 0.6096 ± 0.0019 |
| VFYVGGGAVVRG | 0.689 ± 0.023 |
| VFYVGGGSVVRG | 0.663 ± 0.011 |
| VGAGRGKGRGGG | 0.617 ± 0.013 |
| VGASRFRLSNCF | 0.677 ± 0.02 |
| VGCLGGCGCGGV | 0.716 ± 0.07 |
| VGCQAIESRLHL | 0.737 ± 0.077 |
| VGCSGGRGAGVV | 0.649 ± 0.018 |
| VGCSGVYIWGNL | 0.707 ± 0.015 |
| VGDIGLEVKLFF | 0.72 ± 0.0076 |

| Sequence | protein stability index |
| --- | --- |
| VGDPHPIMQSLL | 0.773 ± 0.049 |
| VGEVAGRWCGRG | 0.7 ± 0.025 |
| VGFGEGCLSFPF | 0.668 ± 0.072 |
| VGFRMAMVVGGL | 0.519 ± 0.026 |
| VGFSVLGGRAGW | 0.712 ± 0.044 |
| VGGGAVRAWGLR | 0.688 ± 0.028 |
| VGGGGAVDGRSG | 0.7298 ± 0.0025 |
| VGGGLGGGVVLV | 0.6993 ± 0.0011 |
| VGGGPVWREPGT | 0.796 ± 0.025 |
| VGGGRGGVVRSG | 0.654 ± 0.1 |
| VGGRDDGFVWEG | 0.667 ± 0.031 |
| VGGRDWADSLVV | 0.772 ± 0.015 |
| VGGVVWIGGVVG | 0.667 ± 0.074 |
| VGIRTFFRFRMR | 0.6692 ± 0.0014 |
| VGKCGSGCLHST | 0.6313 ± 0.004 |
| VGLTGFSQLGDG | 0.675 ± 0.032 |
| VGPCGGVGHLGS | 0.73 ± 0.036 |
| VGPRGFYSFVGG | 0.665 ± 0.014 |
| VGRENNENREEE | 0.629 ± 0.021 |
| VGRPGGVAQHRG | 0.734 ± 0.077 |
| VGSCGAPRLPWP | 0.732 ± 0.038 |
| VGSFVGSREGVW | 0.613 ± 0.029 |
| VGSGEWTRAMNR | 0.673 ± 0.062 |
| VGSLCSRLGRRS | 0.765 ± 0.13 |
| VGSLFGFGGRWV | 0.645 ± 0.0082 |

| Sequence | protein stability index |
| --- | --- |
| VGSPPVWAAVWG | 0.614 ± 0.12 |
| VGSVVRGLVGPY | 0.717 ± 0.19 |
| VGTSVTSSFRGK | 0.591 ± 0.078 |
| VGVAREGQVGAA | 0.694 ± 0.024 |
| VGVCLVSLGSWL | 0.605 ± 0.013 |
| VGVGAGQWVVWY | 0.682 ± 0.028 |
| VGVGWWVGLWGL | 0.693 ± 0.011 |
| VGVPFLVVGVGV | 0.583 ± 0.00081 |
| VGVSLVLPDWDV | 0.693 ± 0.053 |
| VGWGECPKVECV | 0.599 ± 0.1 |
| VGWGWGGGVVLV | 0.692 ± 0.0098 |
| VGYGTGGAVGVE | 0.691 ± 0.041 |
| VHCGTEPRGPRH | 0.709 ± 0.027 |
| VHENVGSGYNLE | 0.734 ± 0.14 |
| VHPRFSFGPHFV | 0.7027 ± 0.00094 |
| VHRKGGRLEILG | 0.64 ± 0.033 |
| VHRRRVSVGGGA | 0.721 ± 0.05 |
| VHSGKGRQAKER | 0.715 ± 0.048 |
| VIACLCGGVMWV | 0.577 ± 0.0008 |
| VIEWFVRGRVGG | 0.7032 ± 0.00085 |
| VIGWACLCFGAI | 0.555 ± 0.0063 |
| VILCPVCFPEEK | 0.66459 ± 0.00057 |
| VIMGRGGGNVGG | 0.701 ± 0.053 |
| VIMNPGNDFLQK | 0.702 ± 0.011 |
| VINKHYINKCQG | 0.638 ± 0.088 |

| Sequence | protein stability index |
| --- | --- |
| VIPSCMVFSSTG | 0.71 ± 0.049 |
| VITAYHSLTYGA | 0.6878 ± 0.0038 |
| VITCGLVLRSVR | 0.652 ± 0.031 |
| VITFPAFLPISN | 0.702 ± 0.017 |
| VIVRAFRWNLVR | 0.605 ± 0.029 |
| VKTGIKQSLTEP | 0.6982 ± 0.0037 |
| VKTSRASLSGKL | 0.805 ± 0.12 |
| VLAPPPLLPPPY | 0.6843 ± 0.0021 |
| VLCIYKLSQVRL | 0.654 ± 0.049 |
| VLFGLSTSSLCL | 0.644 ± 0.075 |
| VLFHWAGFFLFL | 0.525 ± 0.029 |
| VLFPSPSPPLSS | 0.7 ± 0.0071 |
| VLFSCLSLCWVF | 0.6081 ± 0.005 |
| VLGFGSVPAWIE | 0.776 ± 0.048 |
| VLGIVEKRGILR | 0.773 ± 0.11 |
| VLGPWVLSVLWF | 0.546 ± 0.022 |
| VLHLVGFDADVV | 0.725 ± 0.021 |
| VLKYSVQHREFS | 0.685 ± 0.019 |
| VLLAGRLEEGGE | 0.65 ± 0.087 |
| VLLLLLSLLFGV | 0.5135 ± 0.0023 |
| VLLSSWLIWLGG | 0.62 ± 0.01 |
| VLMGGCGSWMAV | 0.6771 ± 0.0044 |
| VLPAGAGKGCVG | 0.653 ± 0.052 |
| VLPSSSPPGLRC | 0.6698 ± 0.0059 |
| VLQSLRSLRRLG | 0.549 ± 0.071 |

| Sequence | protein stability index |
| --- | --- |
| VLRRCGRERGIF | 0.688 ± 0.034 |
| VLRRRPNDMRKF | 0.6939 ± 0.0062 |
| VLSEHRGLPLTR | 0.659 ± 0.066 |
| VLSLPLPSLSLN | 0.725 ± 0.18 |
| VLSPLIGRICGH | 0.658 ± 0.01 |
| VLSSPPVPAPRP | 0.701 ± 0.051 |
| VLSYFFLFSCAS | 0.502 ± 0.098 |
| VLVGWWGLGGGV | 0.642 ± 0.046 |
| VLVYISDLKRSL | 0.689 ± 0.14 |
| VLWLPPSPTPNL | 0.721 ± 0.1 |
| VMCECALLVQSR | 0.563 ± 0.028 |
| VMCWARGWVGST | 0.655 ± 0.05 |
| VMGFCDWLGVFL | 0.728 ± 0.012 |
| VMSGPSGARRIW | 0.701 ± 0.055 |
| VMVVKSSSNTNI | 0.641 ± 0.0077 |
| VMWVGAGVSLSC | 0.6411 ± 0.0041 |
| VNCFVYGKCCSG | 0.648 ± 0.072 |
| VPDRIFRSASQT | 0.714 ± 0.0049 |
| VPFDFFVYFFEF | 0.5861 ± 0.0018 |
| VPIRSGYLRPNF | 0.573 ± 0.038 |
| VPLRLSTVSFGP | 0.746 ± 0.12 |
